B1: LOXL2 (parent)
chain: RLLRFSSQIHNNGQSDFRPKNGRH
B2: AUP1 (parent)
chain: EGLLRFSSWPFSIQDVVQPLTLQV

Variants of: B1
Experiment: protein stability index of a GFP-peptide fusion (GPS, HEK-293T) (PSI 1-6); higher = more stable
Settings: c terminus: a fixed tail appended
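Also: lentivirally expressed fusions sorted by FACS into six bins by GFP to DsRed ratio, PSI derived from sequencing read proportions per bin multiplied by bin number.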

| Variant | protein stability index |
| --- | --- |
| RLLRFISQIHNNGQSDFRPKNGRH [S6I] | 3.34 |
| RLLRFMSQIHNNGQSDFRPKNGRH [S6M] | 2.51 |
| RLLRFCSQIHNNGQSDFRPKNGRH [S6C] | 3.08 |
| RLLRFRSQIHNNGQSDFRPKNGRH [S6R] | 2.99 |
| RLLRFQSQIHNNGQSDFRPKNGRH [S6Q] | 2.71 |
| RLLRFESQIHNNGQSDFRPKNGRH [S6E] | 3.62 |
| RLLRFPSQIHNNGQSDFRPKNGRH [S6P] | 3.41 |
| RLLRFSSQIHNNGQSDMRPKNGRH [F17M] | 3.06 |
| RLLRFSSQIHNNGQSDWRPKNGRH [F17W] | 2.32 |
| RLLRFSSQIHNNGQSDKRPKNGRH [F17K] | 3.34 |
| RLLRFSSQIHNNGQSDIRPKNGRH [F17I] | 3.38 |
| RLLRFSSQIHNNGQSDQRPKNGRH [F17Q] | 3.42 |
| RLLRFSSQIHNNGQSDVRPKNGRH [F17V] | 2.95 |
| RLLRFSSQIHNNGQSDRRPKNGRH [F17R] | 3.06 |
| RTLRFSSQIHNNGQSDFRPKNGRH [L2T] | 4.69 |
| RCLRFSSQIHNNGQSDFRPKNGRH [L2C] | 3.82 |
| RRLRFSSQIHNNGQSDFRPKNGRH [L2R] | 4.07 |
| RFLRFSSQIHNNGQSDFRPKNGRH [L2F] | 2.82 |
| RHLRFSSQIHNNGQSDFRPKNGRH [L2H] | 4.21 |
| RNLRFSSQIHNNGQSDFRPKNGRH [L2N] | 4.58 |
| RLLRFSSQIPNNGQSDFRPKNGRH [H10P] | 3.12 |
| RLLRFSSQITNNGQSDFRPKNGRH [H10T] | 2.89 |

| Variant | protein stability index |
| --- | --- |
| RLLRFSSQILNNGQSDFRPKNGRH [H10L] | 2.14 |
| RLLRFSSQISNNGQSDFRPKNGRH [H10S] | 2.71 |
| RLLRFSSQIHNNGQSVFRPKNGRH [D16V] | 2.15 |
| RLLRFSSQIHNNGQSTFRPKNGRH [D16T] | 2.29 |
| RLLRFSSQIHNNGQSHFRPKNGRH [D16H] | 2.35 |
| RLLRFSSQIHNNGQSKFRPKNGRH [D16K] | 1.94 |
| RLLRFSSQIHNNGQSCFRPKNGRH [D16C] | 1.73 |
| RLLRFSSQIHNNGQSEFRPKNGRH [D16E] | 2.72 |
| RLLRFSSQIHNNGQSLFRPKNGRH [D16L] | 2.7 |
| RLLRFSSQIHNNGQSYFRPKNGRH [D16Y] | 2.06 |
| RLTRFSSQIHNNGQSDFRPKNGRH [L3T] | 3.95 |
| RLCRFSSQIHNNGQSDFRPKNGRH [L3C] | 2.88 |
| RLRRFSSQIHNNGQSDFRPKNGRH [L3R] | 3.81 |
| RLKRFSSQIHNNGQSDFRPKNGRH [L3K] | 3.84 |
| RLSRFSSQIHNNGQSDFRPKNGRH [L3S] | 3.77 |
| RLVRFSSQIHNNGQSDFRPKNGRH [L3V] | 3.44 |
| RLQRFSSQIHNNGQSDFRPKNGRH [L3Q] | 3.99 |
| RLYRFSSQIHNNGQSDFRPKNGRH [L3Y] | 3.44 |
| RLLRFSSQIHNNGQSDFRPANGRH [K20A] | 2.49 |
| RLLRFSSQIHNNGQSDFRPSNGRH [K20S] | 2.78 |
| RLLRFSSQIHNNGQSDFRPHNGRH [K20H] | 2.6 |
| RLLRFSSQIHNNGQSDFRPLNGRH [K20L] | 1.89 |

| Variant | protein stability index |
| --- | --- |
| RLLRFSSQIHNNGQSDFRPDNGRH [K20D] | 2.91 |
| RLLRFSSQIHNNGQSDFRPCNGRH [K20C] | 2.35 |
| RLLRFSSQIHNNGQSDFRPQNGRH [K20Q] | 2.54 |
| RLLRFSSQIHNNGQSDFRPVNGRH [K20V] | 2.35 |
| RLLRFSSQIHNNGQSDFRPGNGRH [K20G] | 2.79 |
| RLLRFSSQIHNNGQSDFRPENGRH [K20E] | 3.45 |
| RLLRYSSQIHNNGQSDFRPKNGRH [F5Y] | 2.96 |
| RLLRWSSQIHNNGQSDFRPKNGRH [F5W] | 2.15 |
| RLLRISSQIHNNGQSDFRPKNGRH [F5I] | 2.72 |
| RLLRMSSQIHNNGQSDFRPKNGRH [F5M] | 2.77 |
| RLLRVSSQIHNNGQSDFRPKNGRH [F5V] | 3.74 |
| RLLRSSSQIHNNGQSDFRPKNGRH [F5S] | 3.81 |
| RLLRDSSQIHNNGQSDFRPKNGRH [F5D] | 3.84 |
| RLLRGSSQIHNNGQSDFRPKNGRH [F5G] | 4.21 |
| RLLRFSSQIHNNTQSDFRPKNGRH [G13T] | 2.74 |
| RLLRFSSQIHNNEQSDFRPKNGRH [G13E] | 3.31 |
| RLLRFSSQIHNNYQSDFRPKNGRH [G13Y] | 2.09 |
| RLLRFSSQIHNNRQSDFRPKNGRH [G13R] | 3.19 |
| RLLRFSSQIHNNVQSDFRPKNGRH [G13V] | 2.24 |
| RLLRFSSQIHNNHQSDFRPKNGRH [G13H] | 3.06 |
| RLLRFSSQIHNNSQSDFRPKNGRH [G13S] | 2.46 |
| RLLRFSSQIHNNPQSDFRPKNGRH [G13P] | 2.62 |

Variants of: B2
Experiment: as above
Settings: c terminus: a fixed tail appended

| Variant | protein stability index |
| --- | --- |
| EGLLRFSSWPFSIQDVVQPLTLHV [Q23H] | 1.98 |
| EGLLRFSSWPFSIQDVVQPLTLMV [Q23M] | 3.98 |
| EGLLRFSSWPFSIQDVVQPLTLSV [Q23S] | 1.4 |
| EGLLRFSSWPFSIQDVVQPLTLRV [Q23R] | 2.91 |
| EGLLRFSSWPFSIQDVVQPLTLPV [Q23P] | 1.45 |
| EGLLRFSSWPFSIQDVVQPLTLGV [Q23G] | 1.4 |
| EGLLRFSSWPFSIQDVVQPLTLEV [Q23E] | 2.65 |
| EGLLRFSSWPFSIQDVVQPLTLLV [Q23L] | 3.58 |
| EGLLRFSSWPFSIQDVVQPLTLKV [Q23K] | 1.59 |
| EGLLRFSSWPFSIQDVVQPLTLYV [Q23Y] | 2.82 |
| EGLLRFSSWPFSIQDVVQPLTLQW [V24W] | 2.53 |
| EGLLRFSSWPFSIQDVVQPLTLQD [V24D] | 1.97 |
| EGLLRFSSWPFSIQDVVQPLTLQR [V24R] | 2.75 |
| EGLLRFSSWPFSIQDVVQPLTLQM [V24M] | 5.7 |
| EGLLRFSSWPFSIQDVVQPLTLQC [V24C] | 2.23 |
| EGLLRFSSWPFSIQDVVQPLTLQF [V24F] | 3.48 |
| EGLLRFSSWPFSIQDVVQPLTLQG [V24G] | 2.14 |
| EGLLRFSSWPFSIQDVVQPLTLQL [V24L] | 2.77 |
| EGLLRFSSWPFSIQDVVQPLTLQP [V24P] | 1.57 |
| EGLLRFSSWPFSIQDVVQPLTLQN [V24N] | 1.59 |
| EGLLRFSSWPFSIQDVVQPLTLQY [V24Y] | 3.1 |
| EGLLRFSSWPFSIQDVVQPLTLQT [V24T] | 1.45 |
| EGLLRFSSWPFSIQDVVQPLTLQA [V24A] | 2.15 |
| EGLLRFSSWPFSIQDVVQPLTLQQ [V24Q] | 1.53 |
| EGLLRFSSWPFSIQDVVQPLTLQI [V24I] | 2.38 |
| EGLLRFSSWPFSIQDVVQPLTLQS [V24S] | 1.79 |
| EGLLRFSSWPFSIQDVVQPLTLQE [V24E] | 2.06 |
| EGLLRFSSWPFSIQDVVQPLTLQK [V24K] | 2.17 |

Reference: the supplement of paper PMC10567573
